According to publication PMC7614784, “Structure and function of the RAD51B-RAD51C-RAD51D-XRCC2 tumour suppressor” (Nature, 2023):

Experiments:
B(AF647)CDX2 = molecular target: T1, B(AF647)CDX2 (Homo sapiens, UniProt O15315;O43502;O75771;O43543 1-345+=GGGSGGGDSLEFIASKLA;1-376;1-328;1-280, internal_change); assay: bulk FRET; high FRET; RAD51B near 3' end; FA: protein in 25 mM HEPES pH 7.5, 10% glycerol, 2.5 mM MgCl2, 0.25 mM TCEP, 150 mM NaCl mixed 1:1 with oligo in HMT buffer, 50 mM NaCl (final ~100 mM NaCl, 5%); conditions: protein: recombinant; TwinStrep-TEV on XRCC2 not cleaved; copies: 1;1;1;1; label: 3'-Cy3
T1 sequence 1: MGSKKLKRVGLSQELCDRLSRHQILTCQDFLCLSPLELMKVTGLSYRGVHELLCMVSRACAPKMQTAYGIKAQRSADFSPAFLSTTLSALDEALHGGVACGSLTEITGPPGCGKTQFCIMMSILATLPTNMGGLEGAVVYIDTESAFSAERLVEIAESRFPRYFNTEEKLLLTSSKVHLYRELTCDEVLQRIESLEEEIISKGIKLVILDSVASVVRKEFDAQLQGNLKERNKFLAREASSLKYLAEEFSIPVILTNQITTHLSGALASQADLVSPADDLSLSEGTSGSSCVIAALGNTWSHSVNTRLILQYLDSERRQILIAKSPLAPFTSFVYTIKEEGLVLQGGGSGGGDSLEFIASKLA
T1 sequence 2: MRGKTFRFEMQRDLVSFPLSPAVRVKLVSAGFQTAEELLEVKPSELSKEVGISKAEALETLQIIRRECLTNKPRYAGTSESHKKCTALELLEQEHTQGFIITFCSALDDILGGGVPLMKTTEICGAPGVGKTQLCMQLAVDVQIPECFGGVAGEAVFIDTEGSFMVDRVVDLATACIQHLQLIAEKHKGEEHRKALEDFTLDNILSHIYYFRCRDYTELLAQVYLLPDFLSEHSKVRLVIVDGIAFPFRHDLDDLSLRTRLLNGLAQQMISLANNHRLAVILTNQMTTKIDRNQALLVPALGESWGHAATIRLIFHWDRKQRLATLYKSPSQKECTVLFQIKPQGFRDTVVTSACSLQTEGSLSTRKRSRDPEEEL
T1 sequence 3: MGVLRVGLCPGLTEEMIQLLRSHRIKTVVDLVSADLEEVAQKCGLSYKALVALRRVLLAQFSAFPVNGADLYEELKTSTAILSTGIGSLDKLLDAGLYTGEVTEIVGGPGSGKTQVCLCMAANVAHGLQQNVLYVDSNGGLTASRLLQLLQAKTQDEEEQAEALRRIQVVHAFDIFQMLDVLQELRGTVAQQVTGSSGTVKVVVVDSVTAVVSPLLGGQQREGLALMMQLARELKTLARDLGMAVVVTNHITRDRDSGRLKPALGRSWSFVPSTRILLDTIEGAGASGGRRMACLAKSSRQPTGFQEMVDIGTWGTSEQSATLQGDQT
T1 sequence 4: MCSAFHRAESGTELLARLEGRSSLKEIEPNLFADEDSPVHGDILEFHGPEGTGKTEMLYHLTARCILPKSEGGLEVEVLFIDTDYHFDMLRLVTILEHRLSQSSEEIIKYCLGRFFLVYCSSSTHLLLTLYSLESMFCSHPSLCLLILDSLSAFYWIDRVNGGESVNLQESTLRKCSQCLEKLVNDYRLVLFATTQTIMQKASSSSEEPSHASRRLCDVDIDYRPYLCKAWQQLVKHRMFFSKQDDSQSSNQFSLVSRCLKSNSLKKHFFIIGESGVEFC

BCDX2(AF647) = molecular target: T2, BCDX2(AF647) (Homo sapiens, UniProt O15315;O43502;O75771;O43543 1-345;1-376;1-328;1-280); assay: bulk FRET; high FRET; XRCC2 near 5' end; FA: protein in 25 mM HEPES pH 7.5, 10% glycerol, 2.5 mM MgCl2, 0.25 mM TCEP, 150 mM NaCl mixed 1:1 with oligo in HMT buffer, 50 mM NaCl (final ~100 mM NaCl, 5%); conditions: protein: recombinant; copies: 1;1;1;1; label: 5'-Cy3
T2 sequence 1: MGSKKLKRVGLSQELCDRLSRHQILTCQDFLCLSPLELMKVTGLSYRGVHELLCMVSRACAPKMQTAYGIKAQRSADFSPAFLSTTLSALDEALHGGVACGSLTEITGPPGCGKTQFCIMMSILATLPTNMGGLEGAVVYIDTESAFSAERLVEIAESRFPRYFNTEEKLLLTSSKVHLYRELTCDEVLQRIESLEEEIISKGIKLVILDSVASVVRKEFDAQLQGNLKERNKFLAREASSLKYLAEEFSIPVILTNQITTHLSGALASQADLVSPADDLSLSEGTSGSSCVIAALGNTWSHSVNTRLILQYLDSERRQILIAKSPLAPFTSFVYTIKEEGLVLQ
T2 sequence 2: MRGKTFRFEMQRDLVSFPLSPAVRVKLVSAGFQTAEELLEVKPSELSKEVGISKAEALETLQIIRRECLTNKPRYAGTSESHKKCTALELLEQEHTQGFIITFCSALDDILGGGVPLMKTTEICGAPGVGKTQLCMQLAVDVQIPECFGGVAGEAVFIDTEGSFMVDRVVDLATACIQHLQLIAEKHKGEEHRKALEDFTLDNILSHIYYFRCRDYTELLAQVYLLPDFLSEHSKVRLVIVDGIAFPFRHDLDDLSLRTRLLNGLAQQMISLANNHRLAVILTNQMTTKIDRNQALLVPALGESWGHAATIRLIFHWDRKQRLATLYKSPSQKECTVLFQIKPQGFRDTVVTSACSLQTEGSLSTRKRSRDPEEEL
T2 sequence 3: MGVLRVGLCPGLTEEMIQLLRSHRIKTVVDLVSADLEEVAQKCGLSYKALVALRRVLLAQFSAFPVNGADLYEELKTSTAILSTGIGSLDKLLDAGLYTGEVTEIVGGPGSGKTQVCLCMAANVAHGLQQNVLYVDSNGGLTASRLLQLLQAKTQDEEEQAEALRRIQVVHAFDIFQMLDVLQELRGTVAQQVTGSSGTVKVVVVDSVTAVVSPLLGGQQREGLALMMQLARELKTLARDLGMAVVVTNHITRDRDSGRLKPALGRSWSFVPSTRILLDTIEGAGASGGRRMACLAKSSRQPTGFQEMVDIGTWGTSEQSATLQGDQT
T2 sequence 4: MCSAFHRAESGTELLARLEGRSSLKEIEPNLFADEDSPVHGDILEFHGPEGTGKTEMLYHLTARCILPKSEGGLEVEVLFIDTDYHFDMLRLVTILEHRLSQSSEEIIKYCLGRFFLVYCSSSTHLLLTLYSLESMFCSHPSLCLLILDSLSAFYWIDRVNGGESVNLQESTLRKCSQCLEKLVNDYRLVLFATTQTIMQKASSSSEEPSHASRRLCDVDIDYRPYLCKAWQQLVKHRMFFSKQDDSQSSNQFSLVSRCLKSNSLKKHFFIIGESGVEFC

Binder | binding result (B(AF647)CDX2) | binding result (BCDX2(AF647))
TATCGAATCCGTCTA (ssDNA) [dN15nt-Cy3-3'] | binds | 
TATCGAATCCGTCTA (ssDNA) [5'-Cy3-dN15nt] |  | binds
